We go through four molecules from article PMC8896805, “Structural insights into ligand recognition, activation, and signaling of the α2A adrenergic receptor” (Science Advances, 2022).

Assay [1] has as its system α2AAR F^7.39N mutation. Set-up: method as in PMID 31801060. Particulars: cited from earlier work.
Assay [2] relates to α2AAR S^5.46A. Particulars: cited from earlier work.
In assay [3] the target is hybrid G protein Gαqi (UniProt P50148).
Assay [4] addresses hybrid G protein Gαqs (UniProt P50148).

Consider `NC[C@H](O)c1ccc(O)c(O)c1` [Norepi, norepinephrine], for which the “activity of Norepi at F^7.39N mutant, in words” value in assay [1] is on record as “completely abolishes the activity”.

For the molecule `CNC[C@H](O)c1ccc(O)c(O)c1` [epinephrine], in assay [2], the “potency to inhibit forskolin-stimulated cAMP accumulation at S^5.46A, in words” value is recorded as “markedly reduced the potency”.

On to “chimeric receptor α2AAR-β2-TM5 (from UniProt P08913 1-232; P07550 221-232; P08913 245-465)”, for which, in assay [3], the IP accumulation (IP-One HTRF) in HEK293T cotransfected with receptor and Gαqi; Gi coupling activity, decrease against wild-type α2AAR was determined as 3 fold. The molecule further gave an IP accumulation (IP-One HTRF) in HEK293T cotransfected with receptor and Gαqs; Gs activity, decrease against wild-type α2AAR in assay [4] of 10 fold.

On to “chimeric receptor β2AR-α2A-TM5 (from UniProt P07550 1-220; P08913 233-244; P07550 233-413)”, for which the IP accumulation (IP-One HTRF) in HEK293T cotransfected with receptor and Gαqi; Gi coupling activity, increase against wild-type β2AR in assay [3] is above 100 fold. Besides, the IP accumulation (IP-One HTRF) in HEK293T cotransfected with receptor and Gαqs; Gs coupling activity, increase against wild-type β2AR in assay [4] was above 100 fold.
